Test results taken from paper PMC4399878, “Probing the Run-On Oligomer of Activated SgrAI Bound to DNA”.
Changes are numbered by the printed parent chain.

Assays:
[1] = molecular target: T1, SgrAI wild type (UniProt Q9F6L0 1-339); assay: fluorescence anisotropy; 10 mM Ca2+; 20 mM Tris-HOAc pH 8.0 (RT), 50 mM KOAc, 10 mM Ca(OAc)2 (or Mg(OAc)2), 1 mM DTT, 4 C for anisotropy and gel run; 10% glycerol for EMSA and R131A/R134A, none for wild type with 40-mers; conditions: protein: recombinant, tags: none (untagged wild type; a C-terminal 6xHis version was also made), chain copies: 2
T1 sequence: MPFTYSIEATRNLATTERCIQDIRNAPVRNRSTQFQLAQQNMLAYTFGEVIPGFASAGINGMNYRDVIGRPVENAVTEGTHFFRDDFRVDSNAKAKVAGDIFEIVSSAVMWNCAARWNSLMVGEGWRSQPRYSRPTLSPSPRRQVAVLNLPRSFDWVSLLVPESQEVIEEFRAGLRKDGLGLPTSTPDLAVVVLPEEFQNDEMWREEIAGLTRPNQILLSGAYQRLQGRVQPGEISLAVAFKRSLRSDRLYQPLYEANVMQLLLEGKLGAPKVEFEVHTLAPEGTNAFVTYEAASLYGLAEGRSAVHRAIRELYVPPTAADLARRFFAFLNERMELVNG

[2] = molecular target: T1, SgrAI wild type; assay: fluorescence anisotropy; 10 mM Mg2+; 20 mM Tris-HOAc pH 8.0 (RT), 50 mM KOAc, 10 mM Ca(OAc)2 (or Mg(OAc)2), 1 mM DTT, 4 C for anisotropy and gel run; 10% glycerol for EMSA and R131A/R134A, none for wild type with 40-mers; conditions: protein: recombinant; tags: none (untagged wild type; a C-terminal 6xHis version was also made); chain copies: 2; label: 5' Hex (Methods)
[3] = molecular target: T2, SgrAI A57E (UniProt Q9F6L0 1-339, A57E); assay: EMSA; 10 mM Ca2+; 20 mM Tris-HOAc pH 8.0 (RT), 50 mM KOAc, 10 mM Ca(OAc)2 (or Mg(OAc)2), 1 mM DTT, 4 C for anisotropy and gel run; 10% glycerol for EMSA and R131A/R134A, none for wild type with 40-mers; conditions: protein: recombinant; chain copies: 2; label: 5' 32P (S56E, A57E) or 5' fluorescein on top strand (R131A, R134A)
T2 sequence: T1 sequence with A57E

[4] = molecular target: T3, SgrAI S56E (UniProt Q9F6L0 1-339, S56E); assay: as above; conditions: protein: recombinant; chain copies: 2; label: 5' 32P (S56E, A57E) or 5' fluorescein on top strand (R131A, R134A)
T3 sequence: T1 sequence with S56E

[5] = molecular target: T4, SgrAI R134A (UniProt Q9F6L0 1-339, R134A); assay: fluorescence anisotropy; 10 mM Ca2+; 20 mM Tris-HOAc pH 8.0 (RT), 50 mM KOAc, 10 mM Ca(OAc)2 (or Mg(OAc)2), 1 mM DTT, 4 C for anisotropy and gel run; 10% glycerol for EMSA and R131A/R134A, none for wild type with 40-mers; conditions: protein: recombinant; chain copies: 2; label: 5' 32P (S56E, A57E) or 5' fluorescein on top strand (R131A, R134A)
T4 sequence: T1 sequence with R134A

[6] = molecular target: T5, SgrAI R131A (UniProt Q9F6L0 1-339, R131A); assay: as above; conditions: protein: recombinant; chain copies: 2; label: 5' 32P (S56E, A57E) or 5' fluorescein on top strand (R131A, R134A)
T5 sequence: T1 sequence with R131A

[7] = label: 5' fluorescein on top strand

B1: 40-2A (dsDNA)
DNA 1: GATGCGTGGGTCTTCACACCGGGGGTCTGCTCAAAATGAG
DNA 2: CTCATTTTGAGCAGACCCCCGGTGTGAAGACCCACGCATC
[1]; [7]
  Kd: 27 ± 2 nM

B2: 40-2B (dsDNA)
DNA 1: B1 DNA 1 with G23T, G24C
DNA 2: B1 DNA 2 with C17G, C18A
[1]; [7]
  Kd: 17 ± 3 nM

B3: 40-NCTA (40-NC-TA) (dsDNA)
DNA 1: B1 DNA 1 with A18T, G23A
DNA 2: B1 DNA 2 with C18T, T23A
[2]
  Kd: 2.8 ± 0.5 nM
[1]; label: 5' Hex (Methods)
  Kd: 0.5 ± 0.1 nM

B4: PC DNA (dsDNA)
DNA 1: GATGCGTGGGTCTTCACA
DNA 2: CCGGTGTGAAGACCCACGCATC
[3]
  Kd: 5 ± 2 nM
[4]
  Kd: 0.26 ± 0.02 nM
[5]
  Kd: 13 ± 6 nM
[6]
  Kd: 60 ± 20 nM
